Test results: the supplement of paper PMC10065799, “High-throughput profiling of sequence recognition by tyrosine kinases and SH2 domains using bacterial peptide display” (eLife, 2023)

Assays:
[1] = biological target: SHP2-C SH2; test: SH2 binding enrichment of the phosphorylated peptide, bacterial display (enrichment ratio); higher = better substrate or ligand; peptides without Tyr show the background
[2] = biological target: Grb2 SH2 (UniProt P62993); test: as above
[3] = biological target: c-Src SH2; test: as above
[4] = system: c-Src; test: phosphorylation enrichment, bacterial display (enrichment ratio); higher = better substrate or ligand; peptides without Tyr show the background
[5] = biological target: EPHB1 (UniProt P54762); test: as above
[6] = biological target: Fyn (UniProt P06241); test: as above
[7] = biological target: EPHB2 (UniProt P29323); test: as above
[8] = system: Fer (mouse); test: as above
[9] = biological target: FGFR1 (UniProt P11362); test: as above
[10] = biological target: Hck (UniProt P08631); test: as above
[11] = biological target: Jak2 (UniProt O60674); test: as above
[12] = system: AncSZ; test: as above
[13] = system: c-Abl (mouse); test: as above
[14] = biological target: MERTK (UniProt Q12866); test: as above
[15] = biological target: FGFR3 (UniProt P22607); test: as above
[16] = biological target: Fes (UniProt P07332); test: as above
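For SH2 binding enrichment of the phosphorylated peptide, bacterial display in this document: peptide library displayed on the E. coli surface as eCPX fusions, selected cells deep-sequenced, score is each peptide's frequency after selection divided by its frequency in the input.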
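For phosphorylation enrichment, bacterial display in this document: 11-residue human phosphosite peptides and single-mutation variants displayed on the E. coli surface, counted by deep sequencing, each peptide's frequency after selection divided by its frequency in the unselected input library; frequency after pTyr selection over input frequency; kinase dosed for 20-30% of maximal phosphorylation in three min.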

Sequence of Jak2 (O60674 whole entry, looked up): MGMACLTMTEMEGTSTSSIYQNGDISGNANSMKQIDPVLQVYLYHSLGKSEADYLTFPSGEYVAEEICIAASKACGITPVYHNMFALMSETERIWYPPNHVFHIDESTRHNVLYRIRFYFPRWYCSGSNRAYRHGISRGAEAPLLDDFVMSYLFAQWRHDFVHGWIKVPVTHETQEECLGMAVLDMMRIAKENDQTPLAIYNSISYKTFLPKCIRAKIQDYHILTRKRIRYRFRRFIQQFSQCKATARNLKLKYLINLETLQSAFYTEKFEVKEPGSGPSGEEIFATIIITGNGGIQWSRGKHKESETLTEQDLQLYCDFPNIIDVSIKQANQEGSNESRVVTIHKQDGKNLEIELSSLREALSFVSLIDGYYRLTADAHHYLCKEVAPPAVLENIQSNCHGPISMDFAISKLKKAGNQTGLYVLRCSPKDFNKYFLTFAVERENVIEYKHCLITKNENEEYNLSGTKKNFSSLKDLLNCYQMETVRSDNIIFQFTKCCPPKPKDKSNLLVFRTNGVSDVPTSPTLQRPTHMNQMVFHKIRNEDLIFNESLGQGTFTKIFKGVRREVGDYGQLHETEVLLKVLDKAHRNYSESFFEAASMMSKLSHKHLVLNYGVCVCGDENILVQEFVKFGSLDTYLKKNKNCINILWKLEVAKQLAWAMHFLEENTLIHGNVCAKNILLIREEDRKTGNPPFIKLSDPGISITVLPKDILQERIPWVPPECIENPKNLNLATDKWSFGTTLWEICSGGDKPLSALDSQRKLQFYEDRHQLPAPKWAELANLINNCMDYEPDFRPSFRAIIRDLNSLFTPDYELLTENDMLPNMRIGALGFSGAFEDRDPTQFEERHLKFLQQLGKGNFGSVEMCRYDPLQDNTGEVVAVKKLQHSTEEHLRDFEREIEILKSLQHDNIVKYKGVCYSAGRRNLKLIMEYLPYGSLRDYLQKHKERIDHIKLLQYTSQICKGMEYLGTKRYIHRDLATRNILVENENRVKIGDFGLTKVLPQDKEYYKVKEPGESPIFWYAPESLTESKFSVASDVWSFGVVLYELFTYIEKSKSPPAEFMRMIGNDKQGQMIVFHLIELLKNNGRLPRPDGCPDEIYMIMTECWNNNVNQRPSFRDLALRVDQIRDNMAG
Sequence of EPHB2 (P29323 whole entry, looked up): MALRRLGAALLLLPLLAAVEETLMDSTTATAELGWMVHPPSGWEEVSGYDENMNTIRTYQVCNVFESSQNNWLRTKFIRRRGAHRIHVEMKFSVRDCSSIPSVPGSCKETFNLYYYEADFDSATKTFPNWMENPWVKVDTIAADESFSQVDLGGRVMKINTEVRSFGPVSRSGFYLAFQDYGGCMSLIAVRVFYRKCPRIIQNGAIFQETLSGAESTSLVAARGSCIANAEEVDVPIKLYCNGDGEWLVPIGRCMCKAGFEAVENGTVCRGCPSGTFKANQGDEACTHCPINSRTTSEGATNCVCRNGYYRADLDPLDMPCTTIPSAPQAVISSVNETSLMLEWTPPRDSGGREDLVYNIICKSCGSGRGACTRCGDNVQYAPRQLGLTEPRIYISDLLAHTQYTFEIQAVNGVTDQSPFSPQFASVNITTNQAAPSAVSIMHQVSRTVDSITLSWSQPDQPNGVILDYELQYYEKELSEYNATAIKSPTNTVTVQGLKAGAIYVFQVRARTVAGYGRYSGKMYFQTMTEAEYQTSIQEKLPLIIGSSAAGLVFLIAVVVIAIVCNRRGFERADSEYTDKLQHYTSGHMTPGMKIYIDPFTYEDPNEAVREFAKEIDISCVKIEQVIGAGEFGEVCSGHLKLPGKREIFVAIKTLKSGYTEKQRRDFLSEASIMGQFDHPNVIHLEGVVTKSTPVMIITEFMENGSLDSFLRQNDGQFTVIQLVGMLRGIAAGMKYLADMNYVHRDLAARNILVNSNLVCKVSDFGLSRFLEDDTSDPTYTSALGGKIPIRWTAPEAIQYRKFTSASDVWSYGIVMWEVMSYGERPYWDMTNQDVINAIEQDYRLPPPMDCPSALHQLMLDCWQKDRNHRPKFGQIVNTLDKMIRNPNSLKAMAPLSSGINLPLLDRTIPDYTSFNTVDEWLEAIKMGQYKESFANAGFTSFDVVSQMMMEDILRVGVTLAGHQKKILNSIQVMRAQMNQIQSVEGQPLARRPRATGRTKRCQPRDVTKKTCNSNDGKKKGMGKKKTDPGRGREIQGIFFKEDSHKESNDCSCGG
Sequence of Hck (P08631 whole entry, looked up): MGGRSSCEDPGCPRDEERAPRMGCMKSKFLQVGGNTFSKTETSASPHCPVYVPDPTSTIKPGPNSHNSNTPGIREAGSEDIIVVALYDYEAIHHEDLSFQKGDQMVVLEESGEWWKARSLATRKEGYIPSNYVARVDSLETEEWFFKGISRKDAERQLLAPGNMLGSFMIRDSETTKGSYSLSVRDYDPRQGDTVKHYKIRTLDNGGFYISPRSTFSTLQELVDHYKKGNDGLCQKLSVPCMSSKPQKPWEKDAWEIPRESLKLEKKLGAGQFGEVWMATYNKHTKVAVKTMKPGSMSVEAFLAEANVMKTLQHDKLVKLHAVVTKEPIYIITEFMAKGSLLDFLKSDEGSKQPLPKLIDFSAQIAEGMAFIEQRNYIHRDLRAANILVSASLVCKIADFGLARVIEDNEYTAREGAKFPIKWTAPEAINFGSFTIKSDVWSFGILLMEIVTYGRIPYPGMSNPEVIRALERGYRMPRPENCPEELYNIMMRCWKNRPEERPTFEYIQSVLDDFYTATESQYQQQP
Sequence of FGFR3 (P22607 whole entry, looked up): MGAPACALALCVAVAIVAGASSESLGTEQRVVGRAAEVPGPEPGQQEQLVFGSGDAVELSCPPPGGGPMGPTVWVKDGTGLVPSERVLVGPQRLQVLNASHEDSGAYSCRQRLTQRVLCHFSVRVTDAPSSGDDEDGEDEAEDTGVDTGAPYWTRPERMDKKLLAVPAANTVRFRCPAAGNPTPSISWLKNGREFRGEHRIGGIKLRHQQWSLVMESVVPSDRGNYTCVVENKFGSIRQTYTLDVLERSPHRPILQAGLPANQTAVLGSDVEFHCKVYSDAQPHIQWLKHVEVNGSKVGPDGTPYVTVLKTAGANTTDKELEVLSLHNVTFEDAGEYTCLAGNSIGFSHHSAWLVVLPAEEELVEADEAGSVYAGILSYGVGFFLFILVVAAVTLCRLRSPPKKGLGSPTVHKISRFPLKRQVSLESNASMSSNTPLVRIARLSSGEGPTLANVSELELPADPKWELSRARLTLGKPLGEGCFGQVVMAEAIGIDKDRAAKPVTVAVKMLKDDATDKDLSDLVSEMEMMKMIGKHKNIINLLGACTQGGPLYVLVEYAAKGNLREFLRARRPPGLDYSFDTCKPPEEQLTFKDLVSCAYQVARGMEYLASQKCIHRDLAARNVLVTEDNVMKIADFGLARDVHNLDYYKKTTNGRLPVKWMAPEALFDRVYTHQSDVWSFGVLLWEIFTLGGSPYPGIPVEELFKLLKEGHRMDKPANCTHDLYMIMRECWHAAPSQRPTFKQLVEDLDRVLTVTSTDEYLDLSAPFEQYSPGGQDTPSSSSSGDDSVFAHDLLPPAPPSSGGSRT
Sequence of Fyn (P06241 whole entry, looked up): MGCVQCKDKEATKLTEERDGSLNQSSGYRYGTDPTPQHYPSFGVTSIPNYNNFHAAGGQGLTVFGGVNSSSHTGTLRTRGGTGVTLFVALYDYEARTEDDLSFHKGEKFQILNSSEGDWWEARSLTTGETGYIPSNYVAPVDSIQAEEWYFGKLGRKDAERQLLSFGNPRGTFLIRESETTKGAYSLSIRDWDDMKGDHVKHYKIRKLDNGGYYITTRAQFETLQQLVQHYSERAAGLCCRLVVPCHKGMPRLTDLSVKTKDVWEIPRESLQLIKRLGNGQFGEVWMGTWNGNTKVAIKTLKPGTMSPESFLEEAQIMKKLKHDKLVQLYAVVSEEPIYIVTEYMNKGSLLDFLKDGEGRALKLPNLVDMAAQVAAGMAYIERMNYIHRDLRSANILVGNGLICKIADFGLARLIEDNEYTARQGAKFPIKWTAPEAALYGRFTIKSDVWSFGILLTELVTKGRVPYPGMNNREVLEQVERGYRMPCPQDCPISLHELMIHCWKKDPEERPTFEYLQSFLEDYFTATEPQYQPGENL
Sequence of Fes (P07332 whole entry, looked up, the tested form may be a part): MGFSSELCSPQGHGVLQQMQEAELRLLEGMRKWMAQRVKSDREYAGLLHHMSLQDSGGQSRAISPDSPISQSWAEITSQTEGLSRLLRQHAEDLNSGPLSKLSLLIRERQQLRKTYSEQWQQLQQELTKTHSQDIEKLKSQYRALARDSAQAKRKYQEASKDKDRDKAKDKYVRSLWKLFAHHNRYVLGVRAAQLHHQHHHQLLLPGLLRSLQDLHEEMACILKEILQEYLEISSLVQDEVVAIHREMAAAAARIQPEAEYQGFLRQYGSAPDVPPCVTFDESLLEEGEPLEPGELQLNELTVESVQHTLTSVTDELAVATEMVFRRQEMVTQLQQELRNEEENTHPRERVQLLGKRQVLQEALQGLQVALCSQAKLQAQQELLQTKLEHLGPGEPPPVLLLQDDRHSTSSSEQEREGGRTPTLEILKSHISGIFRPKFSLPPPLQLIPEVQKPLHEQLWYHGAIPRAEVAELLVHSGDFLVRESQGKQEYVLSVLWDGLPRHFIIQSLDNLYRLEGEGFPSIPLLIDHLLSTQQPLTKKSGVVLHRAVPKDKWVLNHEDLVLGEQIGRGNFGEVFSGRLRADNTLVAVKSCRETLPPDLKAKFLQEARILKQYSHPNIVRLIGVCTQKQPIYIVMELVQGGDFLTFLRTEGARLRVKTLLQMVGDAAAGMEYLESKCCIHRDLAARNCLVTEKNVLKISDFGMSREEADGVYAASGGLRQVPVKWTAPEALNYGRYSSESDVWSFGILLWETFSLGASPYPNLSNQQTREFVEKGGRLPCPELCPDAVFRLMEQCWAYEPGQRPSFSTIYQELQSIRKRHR

SH2 binding enrichment [1]	SH2 binding enrichment [2]	SH2 binding enrichment [3]	Sequence	phosphorylation enrichment [4]	phosphorylation enrichment [5]	phosphorylation enrichment [6]	phosphorylation enrichment [7]	phosphorylation enrichment [8]	phosphorylation enrichment [9]	phosphorylation enrichment [10]	phosphorylation enrichment [11]	phosphorylation enrichment [12]	phosphorylation enrichment [13]	phosphorylation enrichment [14]	phosphorylation enrichment [15]	phosphorylation enrichment [16]
0.498	0.852	0.528	SQSKGYRPKLF [SIPA1L3_Y1376_G1371S_YF]	0.435	0.415	0.417	0.32	0.368	0.433	0.41	0.5	0.503	0.478	0.458	0.42	0.549
0.816	0.842	0.73	SSYDIYHLSRE [KIR3DL2_Y253]	9.33	2.42	13	3.54	1.74	2.73	12.2	0.724	1.27	1.18	6.05	2.01	0.851
0.651	0.826	0.486	STGSRYQPLAS [NCAPD2_Y1325]	0.423	0.424	0.433	0.435	0.423	0.42	0.414	0.596	0.474	0.505	0.549	0.494	0.609
0.654	0.686	0.395	SVTCTYSAALN [TP53_Y126_P128A]	0.836	0.876	0.657	0.803	0.552	0.552	0.679	1.41	1.31	0.947	0.62	0.929	1.72
0.685	0.795	0.422	SVTCTYSPALF [TP53_Y126_N131Y_YF]	1	0.872	0.837	0.694	0.727	0.542	0.695	1.52	1.51	1.05	0.479	1.17	1.74
0.57	0.889	1.12	SVVVPYERPEV [TP53_Y220_P222R]	0.432	0.439	0.475	0.513	0.51	0.495	0.502	0.846	0.958	0.731	0.401	0.627	0.988
0.635	0.784	0.495	SYSGEYGGGGG [ZG16_Y30]	0.385	0.398	0.485	0.452	0.444	0.53	0.525	0.4	0.604	0.433	0.439	0.552	0.685
0.859	0.938	0.563	TDEFEYDELIV [TGM1_Y136_YF]	0.716	1.12	1.59	2.23	0.61	1.69	1.56	1.34	2.29	0.91	0.622	2.03	2.77
1.41	1.1	1.09	TFRPPYFHRNC [HGD_Y333_YF]	0.454	0.522	0.473	0.946	0.626	0.617	0.661	0.717	0.733	0.635	1.03	0.771	0.869
1.29	0.941	0.838	TFYQMYDKGLV [IARS2_Y231]	3.71	2.49	3.3	3.66	1.33	0.986	3.46	0.797	1.38	0.91	7.11	1.25	0.916
0.704	0.838	0.639	TGQEEYSAMRD [KRAS_Y64_A59T]	0.525	0.789	0.519	0.536	0.462	0.538	0.563	0.821	1.08	0.642	0.475	0.63	1
0.566	0.781	0.433	TLKDVYDDGKF [RPS6KA3_Y483_YF]	0.625	0.542	0.548	0.513	0.488	0.614	0.66	0.655	0.988	0.549	0.515	0.66	1.04
0.854	0.798	0.84	TNEYEYDELIV [TGM1_Y136_D132N]	0.981	0.814	0.952	0.975	0.593	0.809	0.769	1.29	1.45	0.962	0.525	0.925	1.23
0.505	0.776	0.416	TPGPNYRPGFN [USH2A_Y463_YF]	0.452	0.531	0.536	0.436	0.498	0.647	0.586	0.675	0.707	0.576	0.87	0.646	0.716
0.956	1.18	0.954	TQTPPYVKKHR [LARP1B_Y457_P462R]	0.624	0.575	0.531	0.545	0.684	0.683	0.649	1.04	0.774	1.18	0.541	1.22	1.23
0.525	0.729	0.837	TRTDAYAVSSF	0.443	0.383	0.419	0.464	0.405	0.567	0.357	1.08	0.78	0.645	0.388	0.534	0.657
6.08	1.48	2.11	TTPGPYRSIYF [MPG_Y71]	1.27	0.268	0.641	0.278	0.54	0.44	0.662	0.433	0.595	0.547	0.422	0.515	1

Further lines, the sequence ahead of its results:

Sequence	SH2 binding enrichment [1]	SH2 binding enrichment [2]	SH2 binding enrichment [3]	phosphorylation enrichment [4]	phosphorylation enrichment [5]	phosphorylation enrichment [6]	phosphorylation enrichment [7]	phosphorylation enrichment [8]	phosphorylation enrichment [9]	phosphorylation enrichment [10]	phosphorylation enrichment [11]	phosphorylation enrichment [12]	phosphorylation enrichment [13]	phosphorylation enrichment [14]	phosphorylation enrichment [15]	phosphorylation enrichment [16]
SPPPAFTPMSG [ERBB4_Y1056_Y1056F]	0.615	0.67	0.364	0.442	0.349	0.305	0.416	0.439	0.402	0.469	0.496	0.597	0.45	0.461	0.465	0.441
SRDTCYLVLAV [AMH_Y195_R194C]	0.616	0.752	0.453	0.666	0.719	0.555	0.684	0.62	0.786	0.651	1.4	1.52	1.06	0.552	1.12	1.48
STEEQYRIRQV [EFHC1_Y115]	0.738	0.802	0.609	0.331	0.314	0.475	0.416	0.375	0.425	0.41	0.516	0.718	0.43	0.345	0.554	0.589
SWKRRYFLLRA [APBB1IP_Y331]	0.689	0.639	0.394	0.713	0.595	0.564	0.58	0.565	0.614	0.943	0.609	0.727	0.637	0.759	0.655	0.631
TFTVSYLPDMS [FLNC_Y1602_YF]	0.799	0.792	0.594	0.478	0.631	0.495	0.599	0.436	0.607	0.48	0.975	1.08	0.835	0.442	0.735	1.28
TLDTDYQMTKR [ADA_Y308]	0.597	0.92	0.558	0.35	0.45	0.483	0.504	0.697	0.462	0.445	0.632	0.77	0.499	0.363	0.584	0.781
TLKVGYKEKQR [EPHA3_Y659_T660K]	1.14	0.919	1.02	0.334	0.45	0.333	0.366	0.358	0.348	0.328	0.812	0.367	0.547	0.37	0.555	0.699
TLLSAYQIPRT [GAB2_Y324_P320L]	0.73	0.91	0.786	0.435	0.55	0.387	0.42	0.545	0.418	0.533	0.68	0.729	9.51	1.18	0.531	0.74
TLNHQYDFTFD [CSNK1A1_Y292_YF]	0.701	0.844	8.5	0.485	0.553	0.507	0.543	0.543	0.57	0.495	0.989	1.22	0.705	0.6	0.653	1.07
TLNHQYDYTFD [CSNK1A1_Y292]	0.691	0.779	9.88	1.27	0.512	0.519	0.706	0.432	0.85	0.536	0.783	1.05	0.565	0.453	0.824	0.964
TLRETYGEMAD [ALB_Y108]	0.579	1.11	0.91	0.702	0.54	0.627	0.559	0.446	0.519	0.555	0.982	0.999	0.885	0.454	0.836	1.2
TMKSHYMELFD [BBS2_Y644_R643H_YF]	1.48	0.824	7.06	0.431	0.764	0.51	0.582	0.547	0.708	0.601	0.772	1.1	0.572	0.893	0.72	0.966
